The test deals with SARS-CoV-2 RBD without the Fc fragment (SARS-CoV-2, UniProt P0DTC2 319-541). The test is described as follows: BLI. For orientation: In BLI a coated tip is dipped into the sample, and binding shifts an interference pattern.

Changes are numbered by the printed parent chain.

As usually defined, the koff is a measure of how fast the partners let go of each other. The low end stands for slow dissociation, the high end for fast dissociation.

B1: nCoVmab2 (antibody, V domains shown)
VH: EVQLVQSGGGVVQPGRSLRLSCAASGFTVSSNYMSWVRQAPGKGLEWVSVIYSGGSTYYADSVKGRFTISRDNSKNTLYLQMNSLRAEDTAVYYCARGDGSDDYYYGMDVWGQGTTVTVSS
VL: QAVLTQPSSVSGAPGQRVTISCTGSSSNVGAGYDVHWYQQLPGTAPKLLIYGNSNRPSGVPDRFSGSKSGTSASLAITGLQAEDEADYYCQSYDSSLSGSVFGGGTKLTVL
With B1, the koff is 4.95e-05 s⁻¹.

B2: nCoVmab1 (antibody, V domains shown)
VH: B1 VH with E1Q, Q6E, V11L, R16G
VL: QSVVTQPPSVSGAQGQRVFISCTGNGANIGMGYDVHWYQQLPGRAPKLLIFGNTNRPSGVPDRFSASRSGTSASLAITGLQTADEADYYCQSYDGNLRASVFGGGTKLTVL
Turning to B2, the koff came to 1.01e-05 s⁻¹. This koff lies about 4.9-fold lower than the previous one.
